The numbers were not newly measured in article PMC8239185, which cites them from elsewhere.

For one series, the target named is Glu286 (UniProt position 286, FFGHPEVYIIV). The experiment in a line: kinetics. The note with it: enzyme during turnover.
In a further series the target is Glu212 (UniProt position 213, RTPDHEDTFFR). The note with it: ground state of the reaction centre (quinones oxidised).

“Cytochrome c oxidase (aa3, A-type), subunit I (Rhodobacter sphaeroides (Cereibacter sphaeroides))”: the pKa result with Glu286 was “≈10”.

Turning to “Photosynthetic reaction centre (bRC), L subunit (Rhodobacter sphaeroides (Cereibacter sphaeroides))”, the pKa result in the series with Glu212 was “≈10”.
